The text below walks through data of PMC7160673, “A Degenerate Peptide Library Approach to Reveal Sequence Determinants of Methyllysine-Driven Protein Interactions” (Frontiers in Cell and Developmental Biology, 2020).

Read-outs that look alike come from different tables or passages of the source.

Assay [1] deals with FAM-KAK(Kme3)TGK peptide (human). In words: fluorescence polarisation; protein serially diluted with 10 nM FAM peptide; 25 mM HEPES pH 7.5, 100 mM NaCl, 0.05% NP-40; anisotropy fitted by specific binding with Hill slope. On the technique in general: Fluorescence polarisation rises when a labelled molecule tumbles more slowly, as on binding a larger partner.
The target of a further assay is FAM-WAY(Kme3)TGK peptide. The assay is described as above.
For assay [2], the target named is FAM-KAK(Kme3)TGK peptide (human). Described as above. This is another data set of the same source.
The target in assay [3] is FAM-TAR(Kme3)STG peptide (H3K9me3). The assay is described as above.
The target in assay [4] is biotinylated H3(1-20)K9me2 peptide. In words: Kme-OPL pulldown fluorescence assay (GST-tagged reader domain). Particulars: parent: est. 1300; read off a plot.

Chain of M Phase Phosphoprotein 8 chromodomain (Q99549 55-116): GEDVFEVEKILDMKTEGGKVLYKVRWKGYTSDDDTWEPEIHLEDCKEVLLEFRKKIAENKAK

The term Kd denotes a measure of binding affinity in units of concentration. A lower Kd goes with tighter binding. In assay [1], “Chromodomain Y-like protein 2 chromodomain (domain or fragment)” yielded a Kd of 3.6 µM. Also, the fold tighter than the H3K9me3 peptide with FAM-WAY(Kme3)TGK peptide worked out at 100 fold.
For “M Phase Phosphoprotein 8 chromodomain (from UniProt Q99549 55-116) (domain or fragment)”, the Kd came to 0.84 µM in assay [1], 0.66 µM in assay [2] and 5.4 µM in assay [3]. In assay [1], this substance had a fold tighter than the H3K9me3 peptide of 10 fold.
For “M Phase Phosphoprotein 8 chromodomain (from UniProt Q99549) W80A”, the response (RFU (GST-subtracted fluorescence)) in assay [4] was 150.
